Assay results taken from US20060177816A1, “Cellular RhoGTPase activation assay” (Abbott GmbH & Co. KG., priority 2005, published 2006).
Each block holds one molecule with its values, some of them ahead of it. alkaline phosphatase tag = alkaline phosphatase tag, N-terminal fusion

Tests used:
[1] = target: human Nogo receptor (hNgR) (human) (UniProt Q9BZR6); experiment: cell-based or functional assay
[2] = system: Rho; experiment: RBD assay (pulldown of GTP-bound Rho with GST-RBD beads, immunoblot); type: cell-based, human
Description: The HEK cells either remained unstimulated or were stimulated (e.g. with LPA or AP-Nogo-66) for a period of from 5 to 10 minutes after a 2-hour starvation period (by incubation with serum-free RPMI-Glutamax). HEK cells (1×10^6 per well) were cultured in 6-well plates (volume of mixture 1000 μl/well). Before the stimulation, a particular volume appropriate for the concentration of the AP-Nogo66 batch employed (e.g. 100 μl of medium was removed from each well and the volume was correspondingly made up again to 1000 μl with AP-Nogo66, to result in a defined final concentration of AP-Nogo66 on the cells. Following the stimulation, the AP-Nogo66 medium solution was completely removed by aspiration. The cells were then washed with ice-cold PBS (phosphate-buffered saline) and lyzed in 50 mM Tris, pH 7.5 (comprising NaCl (500 mM), EDTA (1 mM), MgCl2 […], 10% glycerol, NaF (5 mM), DTT (1 mM), 1% Nonidet P-40 in combination with the protease inhibitors PMSF (1 mM), leupeptin (1 μg/ml) and aprotinin (1 μg/ml)).
Cell lysates (e.g. from HEK293-RhoA and HEK293-RhoA/NgR/p75; 400 μg of total protein in each case) were incubated with 40 μg of the GST-RBD beads (comprising recombinant fusion protein composed of glutathione S-transferase and RBD with amino acids 7 to 89 of human rhotekin) at 4° C. for 1 hour. After the beads had been washed 3 times with lysis buffer, the bound protein (GTP-bound, biochemically active Rho) was analyzed by SDS-PAGE and immunoblotting. The immunoblotting was carried out with anti-Rho antibody and the visualization took place by incubation with a horseradish peroxidase-conjugated secondary antibody and chemiluminescence enhancer (ECL).
It was investigated, using the RBD assay described above, whether Rho is activated after stimulation of NgR with myelin proteins, such as Nogo-66, in HEK293-Rho cells which express NgR and p75 (HEK293-Rho/NgR/p75). The results are depicted in appended FIG. 5a.

[3] = system: HEK293-RhoA/NgR/p75 cells; experiment: ACR (actin cytoskeletal rearrangement) assay with image analysis; type: cell-based, human
Description: 1×10^4 cells were transferred into microtiter plates with 96 wells two days before the stimulation. The cells were stimulated with a suitable reagent (e.g. LPA or AP-Nogo-66) in culture medium (RPMI-Glutamax) comprising 5% FCS. After a stimulation period of 5 to 10 minutes, the activation was stopped with cold PBS. The cells were fixed with 3-4% strength paraformaldehyde solution, permeabilized with PBS comprising 0.2% Triton X-100, and incubated with phalloidin Alexa 568 or 488 for 30-45 minutes. Incubation with DAPI additionally took place for 5 minutes for nuclear staining. The cells were visualized with the aid of an epifluorescence microscope (Axiovert 25). Fluorescence micrograms were recorded using a cooled Zeiss CCD camera.
HEK293-Rho/NgR/p75 cells were transferred into microtiter plates with 96 wells (Biocoat Poly D-Lysine Black Clear Plates from Becton Dickinson, Heidelberg, order number 356640). After a starvation period (cf. above) of 2 hours, the cells were preincubated with PI-PLC (1 U/ml) for 30 minutes or not treated. The cells were subsequently stimulated with LPA or AP-Nogo-66 or remained unstimulated. Fluorescence micrograms were obtained as described above. Representative appearances are depicted in FIG. 5b.
Fluorescence micrograms (FIG. 6a) obtained from an ACR assay carried out according to the invention (stimulation of HEK293-RhoA/NgR/p75 cells with 10 μg/ml AP-Nogo-66) were investigated with various high content screening systems, e.g. with the Atto Pathway HT image analysis system from BD Bioimages (Becton Dickinson) or the Discovery 1 from Molecular Devices, for changes in the cell morphology. […] The Pathway HT was used to determine the number of so-called cytoplasmic vertices (cytoplasmic vertices are a measure of changes in the cytoskeleton which describes inter alia the contraction of actin filaments and the formation of stress fibers). The result of this evaluation is depicted in FIG. 6c.
To analyze the reported morphological changes, 1×10^4 cells per well were seeded into 96-well plates, fixed, the actin filaments were stained with FITC-labelled Alexa Phalloidin and the nuclei were visualized with DAPI. The plates were subjected to our high-content screening (HCS) system, the Pathway HT (Becton Dickinson) and the corresponding image analysis software Attovision. Analyzing the perimeter of the actin cytoskeleton achieved the most significant difference when comparing stimulated with unstimulated samples. The perimeter of the actin cytoskeleton is calculated as “cytoplasmic verticies”, which is a measure for the number of turns or changes in direction that lines outlining the cell follow.

[4] = target: T1, NgR (Homo sapiens, UniProt Q9BZR6); experiment: Preliminary experiments on functional activity of tagged Nogo66 ligands; settings: not shown
T1 sequence (Q9BZR6 27-447): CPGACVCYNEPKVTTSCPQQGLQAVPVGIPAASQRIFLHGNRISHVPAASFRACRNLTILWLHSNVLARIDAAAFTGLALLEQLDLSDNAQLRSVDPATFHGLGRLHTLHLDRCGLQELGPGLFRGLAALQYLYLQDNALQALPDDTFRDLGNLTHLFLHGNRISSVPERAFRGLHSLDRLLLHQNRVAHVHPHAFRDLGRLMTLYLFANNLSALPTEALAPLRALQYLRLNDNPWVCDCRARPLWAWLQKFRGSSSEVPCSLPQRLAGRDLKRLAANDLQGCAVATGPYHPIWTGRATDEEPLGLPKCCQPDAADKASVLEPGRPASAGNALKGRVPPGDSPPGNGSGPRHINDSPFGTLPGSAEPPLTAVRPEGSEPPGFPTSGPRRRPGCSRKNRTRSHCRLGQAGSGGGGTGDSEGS

[5] = HEK293-RhoA/NgR/p75 cells, stimulated for 5 minutes

Molecule: L-alpha-lysophosphatidic acid [LPA, reference compound]
- Rho activation [2, 5]: rapid activation of Rho
- Rho activation ([2]; HEK wild-type cells, LPA stimulation (data not shown)): rapid activation of Rho

Molecule: C[C@@H](N)[C@H]1CC[C@H](C(=O)Nc2ccncc2)CC1 [Y-27632, reference compound]
- inhibition of AP-Nogo66 induced Rho-dependent cell rounding and shrinkage ([3]; 15 min pre-treatment before stimulation with 20 nM AP-Nogo66): abolished AP-Nogo66 induced Rho-dependent cell rounding and shrinkage in a dose-dependent manner
- IC50 for the inhibitory effect on the actin cytoskeletal rearrangement ([3]; 15 min pre-treatment before stimulation with 20 nM AP-Nogo66, no number given): ranges in the order of magnitude of what had described for this broadly used compound

More lines, main results first:

- maximal reduction of the average perimeter (cytoplasmic vertices) against untreated control cells, at 20 nM AP-Nogo66 [1]: 80 to 90%
Molecule: AP-Nogo66 (Nogo-66, comprising an N-terminal alkaline phosphatase Tag) (from UniProt Q9NQC3 1055-1120) (ligand)

- functional activity [4]: not
B1: GST-Nogo66: otherwise tagged Nogo66 (GST tag) (protein)
chain: RIYKGVIQAIQKSDEGHPFRAYLESEVAISEELVQKYSNSALGHVNCTIKELRRLFLVDDLVDSLK
modifications: not fully specified (N-terminus); also: GST tag, end not given here (dimerising)

- functional activity [4]: functionally active
B2: AP-Nogo66: Nogo-66, comprising an N-terminal alkaline phosphatase Tag; NgR receptor ligand (protein)
chain: {alkaline phosphatase tag}-RIYKGVIQAIQKSDEGHPFRAYLESEVAISEELVQKYSNSALGHVNCTIKELRRLFLVDDLVDSLK
modifications: not fully specified
notes: Nogo-66, comprising an N-terminal alkaline phosphatase Tag; NgR receptor ligand
- Rho activation after release of NgR from the cell membrane ([2]; HEK293-RhoA/NgR/p75 cells treated with 1 U/ml PI-PLC 30 minutes before stimulation): no Rho activation
- Rho activation [2, 5]: induced Rho activity
- time to maximum of morphological changes ([3]; 20 nM AP-Nogo66): 15 min
- maximal reduction of the average perimeter (cytoplasmic verticies) in comparison to untreated control cells ([3]; 20 nM AP-Nogo66, 10 min stimulation, Attovision analysis): 80-90%
- time to morphological changes ([3]; 20 nM AP-Nogo66, onset of actin cytoskeletal rearrangement): ≤ 5 min
- morphological change of the cells after stimulation ([3]; 10 μg/ml AP-Nogo-66, mean cell length and cytoplasmic vertices): significant, optically analyzable morphological change
- morphological changes after PI-PLC treatment and stimulation ([3]; PI-PLC (1 U/ml) preincubation for 30 minutes): not observable
